In paper PMC7442826 (2020):

B1: EHBP1 CH (calponin homology) domain [human] / EHBP1 bMERB domain (bMERB_(1060-1212), full-length bMERB domain) [human] (parent complex)
chain 1: GRKPNASQSLLVWCKEVTKNYRGVKITNFTTSWRNGLSFCAILHHFRPDLIDYKSLNPQDIKENNKKAYDGFASIGISRLLEPSDMVLLAIPDKLTVMTYLYQIRAHFSGQ
chain 2: not shown

Variants of: B1
Assay: ITC

| Kd | Variant |
| --- | --- |
| 5.65 µM | chain 1 Y102A |

Variants of: B1
Assay: ITC
Remark: another data set of the same source

| Kd | Variant |
| --- | --- |
| 43.5 µM | chain 1 D93A |

Variants of: B1
Assay: ITC
Remark: another data set of the same source

| Kd | Variant |
| --- | --- |
| 7.6 µM | chain 1 M98A |

Variants of: B1
Assay: ITC
Remark: another data set of the same source

| Kd | Variant |
| --- | --- |
| 3.85 µM | chain 1 Q103A |
